{"source": "paper PMC6080896", "about": "(The Journal of General Physiology, 2018)", "binders": {"B1": {"name": "Venus-tagged CaV1.1 CI (Ven-CaV1.1 CI) (domain or fragment)", "chain": "not shown"}}, "target": "cerulean-tagged CaM (Cer-CaMWT) (UniProt P0DP23 1-149)", "assay": "FRET or BRET", "data": [{"binder": "B1", "values": [{"measurement": "Kd", "result": "~2300", "unit": "nM"}]}]}
